Results reported in article PMC4513852.
Like-named read-outs stand apart in the source and are kept apart here.

Experiments:
[1] = target: Hin F105M (Salmonella enterica) (UniProt P03013); assay: native gel or EMSA
[2] = target: Hin F106W (Salmonella enterica) (UniProt P03013); assay: native gel or EMSA
[3] = target: Hin F106Q (Salmonella enterica) (UniProt P03013); assay: native gel or EMSA
[4] = target: Hin M109Y (Salmonella enterica) (UniProt P03013); assay: native gel or EMSA
[5] = target: Hin M109R (Salmonella enterica) (UniProt P03013); assay: native gel or EMSA
[6] = target: Hin F106V (Salmonella enterica) (UniProt P03013); assay: native gel or EMSA
[7] = target: Hin F105L (Salmonella enterica) (UniProt P03013); assay: native gel or EMSA
[8] = target: Hin F106L (Salmonella enterica) (UniProt P03013); assay: native gel or EMSA
[9] = target: Hin M109F (Salmonella enterica) (UniProt P03013); assay: native gel or EMSA
[10] = target: Hin M109H (Salmonella enterica) (UniProt P03013); assay: native gel or EMSA
[11] = target: Hin M109H (Salmonella enterica) (UniProt P03013); assay: native gel or EMSA; remark: listed apart in the source
[12] = target: Hin F106C (Salmonella enterica) (UniProt P03013); assay: native gel or EMSA
[13] = target: Hin F106G (Salmonella enterica) (UniProt P03013); assay: native gel or EMSA
[14] = target: Hin F106M (Salmonella enterica) (UniProt P03013); assay: native gel or EMSA
[15] = target: Hin F106A (Salmonella enterica) (UniProt P03013); assay: native gel or EMSA
[16] = target: Hin M109W (Salmonella enterica) (UniProt P03013); assay: native gel or EMSA
[17] = target: Hin F105Q (Salmonella enterica) (UniProt P03013); assay: native gel or EMSA
[18] = target: Hin F105V (Salmonella enterica) (UniProt P03013); assay: native gel or EMSA
[19] = target: Hin-Q134C (wt) (Salmonella enterica) (UniProt P03013); assay: cross-linking
[20] = target: Hin F106D (Salmonella enterica) (UniProt P03013); assay: native gel or EMSA
[21] = target: Hin F106E (Salmonella enterica) (UniProt P03013); assay: native gel or EMSA
[22] = target: Hin F106N (Salmonella enterica) (UniProt P03013); assay: native gel or EMSA
[23] = target: Hin F106Y (Salmonella enterica) (UniProt P03013); assay: native gel or EMSA
[24] = target: Hin F106Y (Salmonella enterica) (UniProt P03013)
[25] = target: Hin F106K (Salmonella enterica) (UniProt P03013); assay: native gel or EMSA
[26] = target: Hin F106P (Salmonella enterica) (UniProt P03013); assay: native gel or EMSA
[27] = target: Hin F106T (Salmonella enterica) (UniProt P03013); assay: native gel or EMSA
[28] = target: Hin F105C (Salmonella enterica) (UniProt P03013); assay: native gel or EMSA
[29] = target: Hin F105I (Salmonella enterica) (UniProt P03013); assay: native gel or EMSA
[30] = target: Hin M109Q (Salmonella enterica) (UniProt P03013); assay: native gel or EMSA
[31] = target: Hin M109N (Salmonella enterica) (UniProt P03013); assay: native gel or EMSA
[32] = target: Hin F106R (Salmonella enterica) (UniProt P03013); assay: native gel or EMSA
[33] = target: Hin F105H (Salmonella enterica) (UniProt P03013); assay: native gel or EMSA
[34] = target: Hin F106I (Salmonella enterica) (UniProt P03013); assay: native gel or EMSA
[35] = target: Hin F106S (Salmonella enterica) (UniProt P03013); assay: native gel or EMSA
[36] = target: Hin F105W (Salmonella enterica) (UniProt P03013); assay: native gel or EMSA
[37] = target: Hin M109K (Salmonella enterica) (UniProt P03013); assay: native gel or EMSA
[38] = target: Hin F106H (Salmonella enterica) (UniProt P03013); assay: native gel or EMSA

Hin F105M (from UniProt P03013 1-190) (enzyme)
stoichiometry N [1]: 4

Hin F106W (from UniProt P03013 1-190) (enzyme)
stoichiometry N [2]: 2

Hin F106Q (from UniProt P03013 1-190) (enzyme)
stoichiometry N [3]: 2

Hin M109Y (from UniProt P03013 1-190) (enzyme)
stoichiometry N [4]: 4

Hin M109R (from UniProt P03013 1-190) (enzyme)
stoichiometry N [5]: 4

Hin F106V (from UniProt P03013 1-190) (enzyme)
stoichiometry N [6]: 2

Hin F105L (from UniProt P03013 1-190) (enzyme)
stoichiometry N [7]: 4

Hin F106L (from UniProt P03013 1-190) (enzyme)
stoichiometry N [8]: 2

Hin M109F (from UniProt P03013 1-190) (enzyme)
stoichiometry N [9]: 2

Hin M109H (from UniProt P03013 1-190) (enzyme)
stoichiometry N [10]: 2
stoichiometry N [11]: 4

Hin F106C (from UniProt P03013 1-190) (enzyme)
stoichiometry N [12]: 2

Hin F106G (from UniProt P03013 1-190) (enzyme)
stoichiometry N [13]: 2

Hin F106M (from UniProt P03013 1-190) (enzyme)
stoichiometry N [14]: 2

Hin F106A (from UniProt P03013 1-190) (enzyme)
stoichiometry N [15]: 2

Hin M109W (from UniProt P03013 1-190) (enzyme)
stoichiometry N [16]: 4

Hin F105Q (from UniProt P03013 1-190) (enzyme)
stoichiometry N [17]: 4

Hin F105V (from UniProt P03013 1-190) (enzyme)
stoichiometry N [18]: 4

Hin-Q134C (wt) (from UniProt P03013 1-190) (enzyme)
percent crosslinked products [19]: 65%

Hin F106D (from UniProt P03013 1-190) (enzyme)
stoichiometry N [20]: 2

Hin F106E (from UniProt P03013 1-190) (enzyme)
stoichiometry N [21]: 2

Hin F106N (from UniProt P03013 1-190) (enzyme)
stoichiometry N [22]: 2

Hin F106Y (from UniProt P03013 1-190) (enzyme)
stoichiometry N [23]: 2
Fis-activated in vitro DNA inversion rate, relative to wild type (% of the wild-type rate) [24]: 10

Hin F106K (from UniProt P03013 1-190) (enzyme)
stoichiometry N [25]: 2

Hin F106P (from UniProt P03013 1-190) (enzyme)
stoichiometry N [26]: 2

Hin F106T (from UniProt P03013 1-190) (enzyme)
stoichiometry N [27]: 2

Hin F105C (from UniProt P03013 1-190) (enzyme)
stoichiometry N [28]: 4

Hin F105I (from UniProt P03013 1-190) (enzyme)
stoichiometry N [29]: 4

Hin M109Q (from UniProt P03013 1-190) (enzyme)
stoichiometry N [30]: 4

Hin M109N (from UniProt P03013 1-190) (enzyme)
stoichiometry N [31]: 2

Hin F106R (from UniProt P03013 1-190) (enzyme)
stoichiometry N [32]: 2

Hin F105H (from UniProt P03013 1-190) (enzyme)
stoichiometry N [33]: 4

Hin F106I (from UniProt P03013 1-190) (enzyme)
stoichiometry N [34]: 2

Hin F106S (from UniProt P03013 1-190) (enzyme)
stoichiometry N [35]: 2

Hin F105W (from UniProt P03013 1-190) (enzyme)
stoichiometry N [36]: 4

Hin M109K (from UniProt P03013 1-190) (enzyme)
stoichiometry N [37]: 4

Hin F106H (from UniProt P03013 1-190) (enzyme)
stoichiometry N [38]: 2
